Test results reported in CN111171151A (FOSHAN CANTON BIOTECHNOLOGY CO LTD; UNIV JINAN, dated 2020).

Key:
[1] = biological target: T1, EGFR-ECD 3 重组蛋白 (EGFR胞外段结构域3) (UniProt P00533 334-504, limits assumed); test: ELISA, coated proteins 100 ng/well (EGFR-ECD3 against EGF, bFGF, Her2), anti-HA detection
T1 construct: domain: EGFR胞外段结构域3 (EGFR-ECD 3); Secreted from transiently transfected 293F cells (pCMV-EGFR-ECD3) and purified on a nickel column; also called EGFR胞外段的CD3区域片段; EGFR-ECD 3 纯化蛋白; not shown: purified on a nickel column, detected with anti

[2] = biological target: T1, EGFR-ECD 3 重组蛋白 (EGFR胞外段结构域3); test: ELISA, coated EGFR-ECD3 100 ng/well, NbH3 from 40 μg/mL in 1:2 dilutions

ratio of binding (OD) against the other control proteins [1]: > 2
EC50 [2]: 8.76 µg/mL
B1: 抗EGFR纳米抗体 Nb H3 (VHH)
VHH: QVQLQESGGGSVQAGGSLNLSCAVSGYTGCKNGMSWYRQAPGKEREFVSGIDRDGSPSYADSVKGRFTISQDNAKNIVFLQMNSLRPEDTAMYYCATNPQRNIYGGSWCNYWGQGTQVTVSS
notes: From a Bactrian camel immunised with EGFR-ECD3; expressed in E. coli WK6 from the pComb-3X plasmid and purified on a nickel column; not shown: tags from the pComb-3X vector (purified on a nickel column, detected with anti-H)
